Source: IntAct's records for PubMed 19536131

B1: E3 ubiquitin-protein ligase makorin-1 (Homo sapiens), Q9UHC7 (parent)
chain: MAEAATPGTTATTSGAGAAAATAAAASPTPIPTVTAPSLGAGGGGGGSDGSGGGWTKQVTCRYFMHGVCKEGDNCRYSHDLSDSPYSVVCKYFQRGYCIYGDRCRYEHSKPLKQEEATATELTTKSSLAASSSLSSIVGPLVEMNTGEAESRNSNFATVGAGSEDWVNAIEFVPGQPYCGRTAPSCTEAPLQGSVTKEESEKEQTAVETKKQLCPYAAVGECRYGENCVYLHGDSCDMCGLQVLHPMDAAQRSQHIKSCIEAHEKDMELSFAVQRSKDMVCGICMEVVYEKANPSERRFGILSNCNHTYCLKCIRKWRSAKQFESKIIKSCPECRITSNFVIPSEYWVEEKEEKQKLILKYKEAMSNKACRYFDEGRGSCPFGGNCFYKHAYPDGRREEPQRQKVGTSSRYRAQRRNHFWELIEERENSNPFDNDEEEVVTFELGEMLLMLLAAGGDDELTDSEDEWDLFHDELEDFYDLDL

Variants of: B1
Details: with ubc_human UBC

Variant	effect of a mutation on the interaction
MAEAATPGTTATTSGAGAAAATAAAASPTPIPTVTAPSLGAGGGGGGSDGSGGGWTKQVTCRYFMHGVCKEGDNCRYSHDLSDSPYSVVCKYFQRGYCIYGDRCRYEHSKPLKQEEATATELTTKSSLAASSSLSSIVGPLVEMNTGEAESRNSNFATVGAGSEDWVNAIEFVPGQPYCGRTAPSCTEAPLQGSVTKEESEKEQTAVETKKQLCPYAAVGECRYGENCVYLHGDSCDMCGLQVLHPMDAAQRSQHIKSCIEAHEKDMELSFAVQRSKDMVCGICMEVVYEKANPSERRFGILSNCNETYCLKCIRKWRSAKQFESKIIKSCPECRITSNFVIPSEYWVEEKEEKQKLILKYKEAMSNKACRYFDEGRGSCPFGGNCFYKHAYPDGRREEPQRQKVGTSSRYRAQRRNHFWELIEERENSNPFDNDEEEVVTFELGEMLLMLLAAGGDDELTDSEDEWDLFHDELEDFYDLDL [H307E]	disrupting interaction
